Target: Mus musculus inward rectifier K+ (Kir) channel 3.1 - Paraburkholderia xenovorans KirBac1.3 chimera (Mus musculus | Paraburkholderia xenovorans (Burkholderia xenovorans LB400)) (UniProt P63250)
Experiment: SEC; HiLoad 16/600 Superdex 200 in 20 mM HEPES pH 7.5, 150 mM KCl, 5 mM DDM, 2 mM DTT, 1 mM EDTA, 0.02% NaN3; protein loaded at ~3 mg/mL; tetramer fractions collected

Mus musculus inward rectifier K+ (Kir) channel 3.1 - Paraburkholderia xenovorans KirBac1.3 chimera (from UniProt P63250 181-371; P63250 181-371)
stoichiometry N: 4

— article PMC7175280
